# Where “and” joins values, the source holds several entries; their conditions need not be identical. Equal values may be shown once.
# T1: PIN-ZF D141N (Homo sapiens, UniProt Q5D1E8 134-327, D141N)
# T1 sequence: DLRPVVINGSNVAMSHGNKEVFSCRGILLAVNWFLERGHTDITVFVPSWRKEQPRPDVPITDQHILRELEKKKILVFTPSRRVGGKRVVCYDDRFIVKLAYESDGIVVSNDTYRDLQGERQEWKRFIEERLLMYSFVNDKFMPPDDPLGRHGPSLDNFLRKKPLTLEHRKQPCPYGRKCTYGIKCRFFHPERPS
# T2: PIN D141N (Homo sapiens, UniProt Q5D1E8 134-297, D141N)
# T2 sequence: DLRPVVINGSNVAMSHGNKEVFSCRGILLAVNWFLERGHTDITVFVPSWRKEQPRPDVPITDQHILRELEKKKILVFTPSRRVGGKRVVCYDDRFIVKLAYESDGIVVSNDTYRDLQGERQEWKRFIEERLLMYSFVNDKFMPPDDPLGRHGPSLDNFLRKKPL
# T3: MCPIP1 D141N (Regnase-1), full length (Homo sapiens, UniProt Q5D1E8 1-599, D141N)
# T3 sequence: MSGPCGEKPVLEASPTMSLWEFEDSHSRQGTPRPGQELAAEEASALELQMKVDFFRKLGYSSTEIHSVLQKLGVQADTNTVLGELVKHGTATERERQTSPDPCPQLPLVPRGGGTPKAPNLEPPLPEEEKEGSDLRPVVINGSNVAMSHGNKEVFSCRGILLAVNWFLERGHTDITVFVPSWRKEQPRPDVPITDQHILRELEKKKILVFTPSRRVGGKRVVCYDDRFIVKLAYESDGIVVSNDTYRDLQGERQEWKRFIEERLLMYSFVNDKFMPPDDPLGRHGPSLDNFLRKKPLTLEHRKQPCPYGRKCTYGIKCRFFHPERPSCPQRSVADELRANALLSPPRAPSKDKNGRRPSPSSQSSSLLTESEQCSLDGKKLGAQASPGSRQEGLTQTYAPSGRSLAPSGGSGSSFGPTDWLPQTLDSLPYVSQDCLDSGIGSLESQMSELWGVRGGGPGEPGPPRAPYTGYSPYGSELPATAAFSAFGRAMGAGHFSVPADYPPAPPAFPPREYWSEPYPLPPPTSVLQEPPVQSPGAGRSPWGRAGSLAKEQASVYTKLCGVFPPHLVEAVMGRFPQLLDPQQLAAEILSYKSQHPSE
# B1: MCPIP1WT (Monocyte Chemoattractant Protein-1-Induced Protein 1), full-length (enzyme, human, UniProt Q5D1E8 1-599, looked up)
# chain: MSGPCGEKPVLEASPTMSLWEFEDSHSRQGTPRPGQELAAEEASALELQMKVDFFRKLGYSSTEIHSVLQKLGVQADTNTVLGELVKHGTATERERQTSPDPCPQLPLVPRGGGTPKAPNLEPPLPEEEKEGSDLRPVVIDGSNVAMSHGNKEVFSCRGILLAVNWFLERGHTDITVFVPSWRKEQPRPDVPITDQHILRELEKKKILVFTPSRRVGGKRVVCYDDRFIVKLAYESDGIVVSNDTYRDLQGERQEWKRFIEERLLMYSFVNDKFMPPDDPLGRHGPSLDNFLRKKPLTLEHRKQPCPYGRKCTYGIKCRFFHPERPSCPQRSVADELRANALLSPPRAPSKDKNGRRPSPSSQSSSLLTESEQCSLDGKKLGAQASPGSRQEGLTQTYAPSGRSLAPSGGSGSSFGPTDWLPQTLDSLPYVSQDCLDSGIGSLESQMSELWGVRGGGPGEPGPPRAPYTGYSPYGSELPATAAFSAFGRAMGAGHFSVPADYPPAPPAFPPREYWSEPYPLPPPTSVLQEPPVQSPGAGRSPWGRAGSLAKEQASVYTKLCGVFPPHLVEAVMGRFPQLLDPQQLAAEILSYKSQHPSE
# notes: human MCPIP1 encoded by ZC3H12A (synthetic gene optimised for E. coli, GenScript), full length, 1-599 aa; printed molecular weight 65.7 kDa; no tag is stated for the full-length protein; In solution a mixture of tetramer, dimer and monomer; also called Regnase-1; Regnase1; source: E. coli BL21-CodonPlus-RIL, purified (TMAE ion exchange in denaturing conditions, dialysis, Superdex 200 gel …)
# B2: MCPIP1_(D141N), full-length (enzyme, human, UniProt Q5D1E8 1-599, looked up)
# chain: MSGPCGEKPVLEASPTMSLWEFEDSHSRQGTPRPGQELAAEEASALELQMKVDFFRKLGYSSTEIHSVLQKLGVQADTNTVLGELVKHGTATERERQTSPDPCPQLPLVPRGGGTPKAPNLEPPLPEEEKEGSDLRPVVINGSNVAMSHGNKEVFSCRGILLAVNWFLERGHTDITVFVPSWRKEQPRPDVPITDQHILRELEKKKILVFTPSRRVGGKRVVCYDDRFIVKLAYESDGIVVSNDTYRDLQGERQEWKRFIEERLLMYSFVNDKFMPPDDPLGRHGPSLDNFLRKKPLTLEHRKQPCPYGRKCTYGIKCRFFHPERPSCPQRSVADELRANALLSPPRAPSKDKNGRRPSPSSQSSSLLTESEQCSLDGKKLGAQASPGSRQEGLTQTYAPSGRSLAPSGGSGSSFGPTDWLPQTLDSLPYVSQDCLDSGIGSLESQMSELWGVRGGGPGEPGPPRAPYTGYSPYGSELPATAAFSAFGRAMGAGHFSVPADYPPAPPAFPPREYWSEPYPLPPPTSVLQEPPVQSPGAGRSPWGRAGSLAKEQASVYTKLCGVFPPHLVEAVMGRFPQLLDPQQLAAEILSYKSQHPSE
# notes: human MCPIP1 encoded by ZC3H12A, full length, 1-599 aa, catalytic site mutant D141N; no tag is stated for the full-length protein; also called MCPIP_(D141N); source: E. coli BL21-CodonPlus-RIL, purified (TMAE ion exchange in denaturing conditions, dialysis, Superdex 200 gel filtration)
# B3: mIL-6 82-106 5'FAM (structured_RNA)
# RNA: UGUUGUUCUCUACGAAGAACUGACA
# B4: mIL-6 82-106 YR (structured_RNA)
# RNA: UGUUGUACACUACGAUGUACUGACA
# B5: mIL-6 85-101 short stem (structured_RNA)
# RNA: UGUUCUCUACGAAGAAC
# B6: hIL-6 82-99 (structured_RNA)
# RNA: UGUUCUCUAUGGAGAACU
# B7: consensus stem-loop (structured_RNA)
# RNA: UGGAAAGUAUCUUUCCU
# B8: mIL-6 82-93 ssRNA (ssRNA)
# RNA: UGUUGUUCUCUA
# B9: mIL-6 82-88 ssRNA (ssRNA)
# RNA: UGUUGUU
# B10: poly-U 12 nt (ssRNA)
# RNA: UUUUUUUUUUUU
# B11: mIL-6 82-106 3'FAM (structured_RNA)
# RNA: UGUUGUUCUCUACGAAGAACUGACA
# B12: mIL-6 82-93 ssDNA (ssDNA)
# DNA: TGTTGTTCTCTA
# B13: mIL-6 82-93 dsDNA (dsDNA)
# DNA 1: TGTTGTTCTCTA
# DNA 2: TAGAGAACAACA
# B14: mIL-6 82-106 RS (reverse stem) (structured_RNA)
# RNA: ACAGUCAAGACUACGAUCUUGUUGU
# How the values were obtained:
# [1] = target: the molecule itself; test: SEC; analytical Superdex 200 Increase 10/300 GL calibrated with protein standards; 25 mM Tris pH 7.9, 300 mM NaCl, 10% glycerol, 1 mM DTT, 0.5 mM EDTA, also with 1.6 M urea; apparent molecular weight from the calibration curve, multiple Gaussian peak fit
# PIN-ZF D141N [2] = target: T1, PIN-ZF D141N; test: fluorescence intensity titration; 2.5 mM Mg2+; 20 nM oligo; sequential 2:1 model; 25 mM Tris-HCl pH 7.9, 150 mM NaCl, 5% glycerol, 2.5 mM MgCl2, 1 mM DTT, 0.5 mM EDTA, 0.05 mM ZnCl2, 25 C; oligo 2 nM (full length) or 20 nM (PIN, PIN-ZF); conditions: protein: recombinant; tags: N-terminal His6; chain copies: 2; label: 5' 6-FAM; hairpin
# PIN D141N [3] = target: T2, PIN D141N; test: as above; conditions: protein: recombinant; tags: N-terminal His6; chain copies: 2; label: 5' 6-FAM; hairpin
# PIN-ZF D141N [4] = target: T1, PIN-ZF D141N; test: fluorescence intensity titration; 2.5 mM Mg2+; 25 mM Tris-HCl pH 7.9, 150 mM NaCl, 5% glycerol, 2.5 mM MgCl2, 1 mM DTT, 0.5 mM EDTA, 0.05 mM ZnCl2, 25 C; oligo 2 nM (full length) or 20 nM (PIN, PIN-ZF); conditions: protein: recombinant, tags: N-terminal His6, chain copies: 2
# PIN D141N [5] = target: T2, PIN D141N; test: as above; conditions: protein: recombinant, tags: N-terminal His6, chain copies: 2
# [6] = target: T3, MCPIP1 D141N (Regnase-1), full length; test: as above; conditions: protein: recombinant, tags: none stated (purified by ion exchange), chain copies: 2
# [7] = label: 5' 6-FAM on strand 1, blunt, strands mixed 1:1.2
binder,measurement,setting,value
B1,stoichiometry N,[1],4 and 2
B2,stoichiometry N,[1],2 and 4
B3,Kd,PIN-ZF D141N [2],0.0066 ± 0.0031 µM
same,Kd,PIN D141N [3],0.0241 ± 0.0073 µM
B4,Kd,"PIN-ZF D141N [4]; label: 5' 6-FAM, hairpin",0.0144 ± 0.0096 µM
same,Kd,"PIN D141N [5]; label: 5' 6-FAM, hairpin",0.0251 ± 0.007 µM
same,Kd,"[6]; label: 5' 6-FAM, hairpin",0.0095 ± 0.0052 µM
B5,Kd,"PIN-ZF D141N [4]; label: 5' 6-FAM, hairpin",0.02 ± 0.01 µM
same,Kd,"PIN D141N [5]; label: 5' 6-FAM, hairpin",0.0207 ± 0.0072 µM
same,Kd,"[6]; label: 5' 6-FAM, hairpin",0.0092 ± 0.004 µM
B6,Kd,"PIN-ZF D141N [4]; label: 5' 6-FAM, hairpin",0.0132 ± 0.0068 µM
same,Kd,"PIN D141N [5]; label: 5' 6-FAM, hairpin",0.0151 ± 0.0045 µM
same,Kd,"[6]; label: 5' 6-FAM, hairpin",0.0041 ± 0.0036 µM
B7,Kd,"PIN-ZF D141N [4]; label: 5' 6-FAM, hairpin",0.0091 ± 0.0032 µM
same,Kd,"PIN D141N [5]; label: 5' 6-FAM, hairpin",0.036 ± 0.017 µM
same,Kd,"[6]; label: 5' 6-FAM, hairpin",0.0038 ± 0.0028 µM
B8,Kd,"PIN-ZF D141N [4]; label: 5' 6-FAM, unstructured",0.034 ± 0.018 µM
same,Kd,"PIN D141N [5]; label: 5' 6-FAM, unstructured",0.041 ± 0.012 µM
same,Kd,"[6]; label: 5' 6-FAM, unstructured",0.019 ± 0.011 µM
B9,Kd,"PIN-ZF D141N [4]; label: 5' 6-FAM, unstructured",0.032 ± 0.02 µM
same,Kd,"PIN D141N [5]; label: 5' 6-FAM, unstructured",0.04 ± 0.012 µM
same,Kd,"[6]; label: 5' 6-FAM, unstructured",0.0145 ± 0.0081 µM
B10,Kd,PIN-ZF D141N [4]; label: 5' 6-FAM,0.043 ± 0.023 µM
same,Kd,PIN D141N [5]; label: 5' 6-FAM,0.039 ± 0.011 µM
same,Kd,[6]; label: 5' 6-FAM,0.0148 ± 0.0072 µM
B11,Kd,"PIN-ZF D141N [4]; label: 3' 6-FAM, hairpin",0.0048 ± 0.0018 µM
same,Kd,"PIN D141N [5]; label: 3' 6-FAM, hairpin",0.0218 ± 0.0063 µM
same,Kd,"[6]; label: 3' 6-FAM, hairpin",0.0086 ± 0.0026 µM
B12,Kd,PIN-ZF D141N [4]; label: 5' 6-FAM,0.036 ± 0.02 µM
same,Kd,PIN D141N [5]; label: 5' 6-FAM,0.0217 ± 0.0066 µM
same,Kd,[6]; label: 5' 6-FAM,0.0183 ± 0.0082 µM
B13,Kd,PIN-ZF D141N [4]; [7],0.08 ± 0.03 µM
same,Kd,PIN D141N [5]; [7],0.056 ± 0.017 µM
same,Kd,[6]; [7],0.118 ± 0.049 µM
B14,Kd,"PIN-ZF D141N [4]; label: 5' 6-FAM, hairpin",0.0151 ± 0.0073 µM
same,Kd,"PIN D141N [5]; label: 5' 6-FAM, hairpin",0.0393 ± 0.0086 µM
same,Kd,"[6]; label: 5' 6-FAM, hairpin",0.0098 ± 0.0023 µM

# Source: paper PMC5943514, “Substrate specificity of human MCPIP1 endoribonuclease” (Scientific Reports, 2018)
